Source: the supplement of paper PMC9732359
± gives the uncertainty stated by the source.

Assay: protein stability index of a GFP-peptide fusion (yeast GPS) (PSI 1-4); higher = more stable; sorted into four equal gates, so the index is relative within each strain
How it was run: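 Tiled 17-residue yeast protein peptides were fused downstream of GFP in a plasmid that also expresses Cherry, and the pooled library was carried in yeast. Mid-log cultures in leucine-free medium were sorted into four equal gates by GFP/Cherry fluorescence ratio, and plasmids from each gate were PCR-amplified and Illumina-sequenced, with reads assigned to strains by barcodes. The protein stability index for each peptide was each gate's read frequency times its gate number, summed.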

Row | Sequence | protein stability index (doa10∆) | protein stability index (pdr5∆) | protein stability index (san1∆) | protein stability index (ubr1∆)
1 | EKADYERELISNIEQTE [YIL149C/MLP2] | 3.34 ± 0.079 | 3.48 ± 0.087 | 3.27 ± 0.063 | 3.6 ± 0.098
2 | VPVRSFKGHSHIVQDCT [ASC1] | 2.5 ± 0.073 | 3.11 ± 0.064 | 2.91 ± 0.081 | 2.83 ± 0.049
3 | RQKNVIHRAARPTRPDK [RPL15A] | 3.31 ± 0.17 | 3.69 ± 0.16 | 3.27 ± 0.066 | 3.24 ± 0.2
4 | TGISQKSMSILNSFVND [HTB1] | 2.96 ± 0.06 | 2.94 ± 0.074 | 2.6 ± 0.075 | 2.67 ± 0.087
5 | RLYLKDQTNHIESDSIL [ECM29] | 2.8 ± 0.062 | 2.76 ± 0.06 | 2.96 ± 0.048 | 2.62 ± 0.035
6 | YSIPHPSENLLNIRIQT [RPC19] | 2.1 ± 0.098 | 2.21 ± 0.078 | 2.65 ± 0.12 | 2.38 ± 0.11
7 | YMEQGNNKIITLVKGPK [SKI6] | 2.76 ± 0.054 | 3.11 ± 0.085 | 2.8 ± 0.054 | 2.96 ± 0.034
8 | SGCDSTKPSLRKASCIW [ECM29] | 2.86 ± 0.082 | 3.11 ± 0.075 | 2.63 ± 0.076 | 2.98 ± 0.066
9 | MTEHETKDKAKKIREIY [BRR2] | 2.6 ± 0.17 | 2.69 ± 0.11 | 2.27 ± 0.18 | 2.35 ± 0.1
10 | AKICALLFFNFSHSLTT [NUT1] | 1.43 ± 0.045 | 1.45 ± 0.036 | 1.4 ± 0.051 | 1.27 ± 0.026
11 | KKTRIIPRHLQLAIRND [HTA1] | 2.47 ± 0.088 | 2.69 ± 0.078 | 3.03 ± 0.11 | 2.05 ± 0.081
12 | VGKTVKQLIMESQEKYM [NSL1] | 3.17 ± 0.097 | 3.18 ± 0.073 | 2.8 ± 0.067 | 3.34 ± 0.055
13 | AAVIALGFVLLRDYTTV [RPN2] | 1.59 ± 0.066 | 1.21 ± 0.081 | 1.22 ± 0.082 | 1.27 ± 0.048
14 | FTNELKAELDRYKRENQ [SEM1] | 3.09 ± 0.16 | 3.38 ± 0.14 | 2.98 ± 0.11 | 3.41 ± 0.24
15 | EGKKVMAPYLPGSRASS [RPN2] | 2.47 ± 0.065 | 2.69 ± 0.074 | 2.4 ± 0.072 | 2.54 ± 0.052
16 | TDKPFSSTQDVILRKIS [CSI1] | 2.87 ± 0.13 | 3.31 ± 0.13 | 2.92 ± 0.071 | 3.05 ± 0.06
17 | VLKFLTDLEKKHLWDQK [RPC17] | 3.14 ± 0.24 | 3.41 ± 0.16 | 3.18 ± 0.14 | 3.47 ± 0.14
18 | GPRAVLTRQPTEGRSRD [RET1] | 3.43 ± 0.091 | 3.35 ± 0.066 | 3.1 ± 0.067 | 3.34 ± 0.057
19 | ARGMTSKPAGFMKKLRA [RPS15] | 3.15 ± 0.16 | – | 2.64 ± 0.26 | 3.6 ± 0.14
20 | PSAVAGFINQKNLKPQE [YIL149C/MLP2] | 3.16 ± 0.099 | 3.1 ± 0.084 | 2.98 ± 0.05 | 3.02 ± 0.042
21 | TEKLSNGFSFTKFNHNK [YOR098C/NUP1] | 3.02 ± 0.089 | 3.14 ± 0.064 | 3.02 ± 0.037 | 2.94 ± 0.063
22 | IDTSKNLENMSIQDTST [YCG1] | 2.79 ± 0.046 | 2.94 ± 0.041 | 2.71 ± 0.044 | 2.68 ± 0.041
23 | KNMFEKKASKVTVDADI [ISW2] | 2.44 ± 0.063 | 2.87 ± 0.059 | 2.83 ± 0.055 | 2.77 ± 0.054
24 | EPSGIYSSWSAQTIGRN [PRE6] | 1.24 ± 0.064 | 1.21 ± 0.089 | 1.06 ± 0.18 | 1.53 ± 0.097
25 | DEEGIFSRFVDQFIRHV [YCG1] | 2.98 ± 0.16 | 2.79 ± 0.13 | 2.99 ± 0.085 | 2.93 ± 0.06
26 | SAVKRLLHVAVSDSNDD [RPN2] | 2.39 ± 0.11 | 3.06 ± 0.071 | 2.56 ± 0.083 | 2.69 ± 0.063

Row | Sequence | protein stability index (doa10∆) | protein stability index (pdr5∆) | protein stability index (san1∆) | protein stability index (ubr1∆)
27 | INKEIFHHWLVEFINKM [SRB8] | 1.49 ± 0.17 | 1.76 ± 0.12 | 3.03 ± 0.053 | 1.6 ± 0.088
28 | ASTVAKTAPIQESFVPN [YOR098C/NUP1] | 2.97 ± 0.16 | 2.83 ± 0.11 | 2.94 ± 0.3 | 3.21 ± 0.061
29 | ITYALSGYVRSRGESDD [RPS21B] | 1.74 ± 0.075 | 2.81 ± 0.11 | 2.44 ± 0.092 | 2.84 ± 0.058
30 | TLLKNLRKKLNFKLCQA [YJR042W/NUP85] | 2.01 ± 0.12 | 2.12 ± 0.097 | 1.13 ± 0.23 | –
31 | DGNNEIFTCQIMNLITN [RPN4] | 2.09 ± 0.083 | 2.62 ± 0.18 | 2.35 ± 0.2 | 2.35 ± 0.25
32 | APIGKHYVVLDTNVVLQ [DIS3] | 2.93 ± 0.13 | 2.81 ± 0.14 | 2.04 ± 0.16 | 2.31 ± 0.12
33 | SSSDFRLHYYPKDPSNV [BRR2] | 3.21 ± 0.066 | 3.29 ± 0.06 | 3.47 ± 0.052 | 3.15 ± 0.042
34 | NEKEQLSFINPKTGKVE [SEC65] | 2.98 ± 0.11 | 2.89 ± 0.11 | 2.98 ± 0.064 | 2.99 ± 0.059
35 | SVLYPDELEDDTLNETN [RRP43] | 3 ± 0.082 | 3.08 ± 0.071 | 3.19 ± 0.08 | 3.11 ± 0.062
36 | IIMFVGLQGSGKTTSCT [SRP54] | 2.8 ± 0.067 | 3.04 ± 0.054 | 3.13 ± 0.064 | 3.13 ± 0.046
37 | TANATANVNASAMPAPY [DSN1] | 3.11 ± 0.042 | 3.17 ± 0.037 | 3.083 ± 0.029 | 3.1 ± 0.034
38 | YGPPGTGKTLLAKAVAA [RPT4] | 2.17 ± 0.069 | 2.23 ± 0.06 | 1.98 ± 0.089 | 1.93 ± 0.05
39 | NTPLVGAAFKVISNLVP [YJL039C/NUP192] | 1.96 ± 0.081 | 2.08 ± 0.095 | 2.73 ± 0.16 | 2.47 ± 0.1
40 | YSLRLINKEIFHHWLVE [SRB8] | 1.75 ± 0.064 | 1.52 ± 0.081 | 1.55 ± 0.13 | 1.59 ± 0.068
41 | EEEMAPYYKYLCEEYLV [RPN7] | 2.12 ± 0.087 | 2.74 ± 0.11 | 2.5 ± 0.14 | 2.64 ± 0.093
42 | TTSLNPIQSKVFHAAFE [BRR2] | 2.65 ± 0.062 | 2.56 ± 0.071 | 2.08 ± 0.11 | 2.85 ± 0.052
43 | PIDDTMTLLTDSLRKLY [MTW1] | 1.89 ± 0.067 | 2.52 ± 0.062 | 1.73 ± 0.093 | 2.22 ± 0.052
44 | AMSTVTLGVVGKSEKLS [SKI6] | 2.81 ± 0.079 | 3.19 ± 0.081 | 2.75 ± 0.099 | 2.93 ± 0.073
45 | KIRRAARDLLTRDEKDP [RPS9A] | 2.33 ± 0.08 | 2.49 ± 0.065 | 2.3 ± 0.093 | 2.58 ± 0.078
46 | AKPDEKKNDEVSKPAFS [YJL041W/NSP1] | – | 3.11 ± 0.19 | 2.94 ± 0.29 | 3.2 ± 0.14
47 | QLNSRAVAVVVDPIQSV [RPN11] | 1.27 ± 0.067 | 1.65 ± 0.076 | 1.43 ± 0.12 | 1.48 ± 0.051
48 | SKQNGIEQSITKNIPIT [SSN8] | 2.63 ± 0.082 | 2.67 ± 0.069 | 2.66 ± 0.079 | 2.84 ± 0.068
49 | FMDNSYDIDEIDHSDES [ESC2] | – | – | 2.66 ± 0.14 | 2.82 ± 0.13
50 | SVLHSWVQLVQIIVTDG [YJL039C/NUP192] | 1.58 ± 0.049 | 1.98 ± 0.056 | 1.28 ± 0.085 | 1.54 ± 0.055
51 | YIYLSHETLARSSEEIN [RPN3] | 3.15 ± 0.26 | – | – | 3.15 ± 0.18
